Test results: paper PMC6883375, “Enolase From Aspergillus fumigatus Is a Moonlighting Protein That Binds the Human Plasma Complement Proteins Factor H, FHL-1, C4BP, and Plasminogen” (Frontiers in Immunology, 2019)

What was measured:
[1] = molecular target: Aspergillus fumigatus enolase (AfEno1), recombinant His-tagged (Aspergillus fumigatus) (UniProt Q96X30); assay: BLI; His-tagged AfEno1 on Ni-NTA biosensors; factor H, C4BP or plasminogen as analyte; DPBS with 0.001% gelatin, RT; association 250 s, dissociation 250 s; 1:1 model; heat inactivated regulators as non-binding control
human factor H [2] = molecular target: T1, human factor H (human, UniProt P08603 19-1231); assay: not stated; data not shown; method and format not told
T1 construct: complement factor H, human, 150-kDa plasma protein of 20 short conserved repeats (SCRs); also called NHS-derived factor H; serum-derived Factor H; source: bought: CompTech (purified human factor H); also in normal human serum (NHS)
T1 sequence (P08603 19-1231): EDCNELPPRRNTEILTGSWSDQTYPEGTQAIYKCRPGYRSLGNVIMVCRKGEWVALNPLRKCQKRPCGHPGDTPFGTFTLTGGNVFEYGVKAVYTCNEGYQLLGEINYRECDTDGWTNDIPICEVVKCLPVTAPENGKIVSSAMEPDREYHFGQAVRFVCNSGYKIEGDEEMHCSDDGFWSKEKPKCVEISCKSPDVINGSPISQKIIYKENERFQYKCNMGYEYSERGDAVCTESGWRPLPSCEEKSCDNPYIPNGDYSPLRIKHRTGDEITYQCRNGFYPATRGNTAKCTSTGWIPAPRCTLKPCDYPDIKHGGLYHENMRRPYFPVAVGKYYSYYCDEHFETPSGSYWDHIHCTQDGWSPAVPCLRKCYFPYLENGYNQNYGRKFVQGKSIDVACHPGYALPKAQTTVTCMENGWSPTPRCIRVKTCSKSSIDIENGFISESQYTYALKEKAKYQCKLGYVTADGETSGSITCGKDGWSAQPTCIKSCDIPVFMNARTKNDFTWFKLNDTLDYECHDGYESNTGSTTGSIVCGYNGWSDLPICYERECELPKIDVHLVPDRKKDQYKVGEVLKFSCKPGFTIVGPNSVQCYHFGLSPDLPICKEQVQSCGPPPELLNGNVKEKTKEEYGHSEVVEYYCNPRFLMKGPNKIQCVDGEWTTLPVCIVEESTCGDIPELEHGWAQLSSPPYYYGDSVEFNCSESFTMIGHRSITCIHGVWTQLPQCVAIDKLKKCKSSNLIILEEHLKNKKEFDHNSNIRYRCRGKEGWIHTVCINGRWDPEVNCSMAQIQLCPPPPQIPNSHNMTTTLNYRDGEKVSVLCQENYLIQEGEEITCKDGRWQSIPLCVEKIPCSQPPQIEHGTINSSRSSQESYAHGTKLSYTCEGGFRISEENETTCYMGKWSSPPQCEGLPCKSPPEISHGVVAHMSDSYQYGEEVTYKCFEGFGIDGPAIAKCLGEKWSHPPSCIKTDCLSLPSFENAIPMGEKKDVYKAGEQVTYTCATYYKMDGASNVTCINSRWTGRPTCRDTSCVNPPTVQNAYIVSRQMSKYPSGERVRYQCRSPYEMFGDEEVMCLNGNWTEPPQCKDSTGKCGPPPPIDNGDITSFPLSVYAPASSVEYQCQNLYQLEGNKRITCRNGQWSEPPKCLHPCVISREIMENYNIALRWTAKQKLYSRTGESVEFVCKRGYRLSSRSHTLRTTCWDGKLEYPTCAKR

human factor H [3] = molecular target: T1, human factor H; assay: BLI; His-tagged AfEno1 on Ni-NTA biosensors; factor H, C4BP or plasminogen as analyte; DPBS with 0.001% gelatin, RT; association 250 s, dissociation 250 s; 1:1 model; heat inactivated regulators as non-binding control; conditions: both partners purified
[4] = molecular target: T2, human C4b binding protein (C4BP) (human, UniProt P04003 49-597; P20851 18-252); assay: as above; conditions: both partners purified
T2 construct: also called NHS-derived C4BP; plasma-derived C4BP; source: bought: CompTech (purified human C4BP); also in normal human serum (NHS); copies: 7 + 1
T2 sequence 1: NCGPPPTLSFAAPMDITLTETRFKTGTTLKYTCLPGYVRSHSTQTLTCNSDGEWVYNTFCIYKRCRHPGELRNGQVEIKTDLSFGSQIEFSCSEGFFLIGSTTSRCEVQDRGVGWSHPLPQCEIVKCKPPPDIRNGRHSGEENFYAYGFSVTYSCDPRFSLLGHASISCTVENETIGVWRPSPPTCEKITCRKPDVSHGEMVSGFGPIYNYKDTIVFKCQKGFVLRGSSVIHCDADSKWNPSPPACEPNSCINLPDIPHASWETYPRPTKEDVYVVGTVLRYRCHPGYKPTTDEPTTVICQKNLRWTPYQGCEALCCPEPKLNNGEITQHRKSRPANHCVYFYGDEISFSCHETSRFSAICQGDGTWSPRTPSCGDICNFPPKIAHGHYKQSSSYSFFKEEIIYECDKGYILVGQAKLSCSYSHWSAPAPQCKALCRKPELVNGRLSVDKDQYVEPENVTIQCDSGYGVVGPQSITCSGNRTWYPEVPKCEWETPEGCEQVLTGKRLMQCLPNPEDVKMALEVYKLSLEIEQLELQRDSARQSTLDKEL
T2 sequence 2: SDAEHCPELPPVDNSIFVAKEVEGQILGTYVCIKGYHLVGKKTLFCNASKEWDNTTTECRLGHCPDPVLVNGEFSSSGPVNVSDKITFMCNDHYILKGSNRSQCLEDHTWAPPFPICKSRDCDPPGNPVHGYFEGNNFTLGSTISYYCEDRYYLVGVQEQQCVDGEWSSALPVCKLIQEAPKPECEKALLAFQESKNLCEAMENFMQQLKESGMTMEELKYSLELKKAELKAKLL

human plasminogen (natural protein)
Kd [1]: 0.53 µM

B1: Candida albicans Pra1 (pH-regulated antigen 1) (natural protein)
chain: APVTVTRFVDASPTGYDWRADWVKGFPIDSSCNATQYNQLSTGLQEAQLLAEHARDHTLRFGSKSPFFRKYFGNETASAEVVGHFDNVVGADKSSILFLCDDLDDKCKNDGWAGYWRGSNHSDQTIICDLSFVTRRYLTQLCSSGYTVSKSKTNIFWAGDLLHRFWHLKSIGQLVIEHYADTYEEVLELAQENSTYAVRNSNSLIYYALDVYAYDVTIPGEGCNGDGTSYKKSDFSSFEDSDSGSDSGASSTASSSHQHTDSNPSATTDANSHCHTHADGEVHC
notes: pH-regulated antigen 1 (Pra1) of Candida albicans; the construct is not described; also called C. albicans Pra1
Kd (human factor H [2]): 0.00187 µM

B2: Aspergillus fumigatus enolase (AfEno1), recombinant His-tagged (natural protein)
chain: MPISKIHARSVYDSRGNPTVEVDVVTETGLHRAIVPSGASTGQHEAHELRDGDKTQWGGKGVLKAVKNVNETIGPALIKENIDVKDQSKVDEFLNKLDGTANKSNLGANAILGVSLAVAKAGAAEKGVPLYAHISDLAGTKKPYVLPVPFQNVLNGGSHAGGRLAFQEFMIVPDSAPSFSEALRQGAEVYQKLKALAKKKYGQSAGNVGDEGGVAPDIQTAEEALDLITEAIEQAGYTGKIKIAMDVASSEFYKADVKKYDLDFKNPESDPSKWLTYEQLADLYKSLAAKYPIVSIEDPFAEDDWEAWSYFYKTSDFQIVGDDLTVTNPGRIKKAIELKSCNALLLKVNQIGTLTESIQAAKDSYADNWGVMVSHRSGETEDVTIADIAVGLRSGQIKTGAPCRSERLAKLNQILRIEEELGENAVYAGSKFRTAVNL
notes: enolase (AfEno1, allergen Aspf22) of Aspergillus fumigatus; the gene was cloned with six His residues added at the N-terminus; Vector printed as 'pET 4.1 a'; also called Aspf22; recombinant AfEno1; source: E. coli BL21 (DE3), purified (Ni-NTA, HisTrap); not shown: His6, N-terminal, kept
Kd (human factor H [3]): 0.528 µM
Kd [4]: 0.131 µM
